Test results reported in the supplement of paper PMC10065799, “High-throughput profiling of sequence recognition by tyrosine kinases and SH2 domains using bacterial peptide display” (eLife, 2023).

Experiments:
AncSZ = experiment: phosphorylation enrichment, bacterial display (enrichment ratio); higher = better substrate or ligand; peptides without Tyr show the background
EPHB1 = EPHB1 (UniProt P54762); experiment: as above
EPHB2 = EPHB2 (UniProt P29323); experiment: as above
FGFR1 = FGFR1 (UniProt P11362); experiment: as above
Chain of FGFR1 (P11362 whole entry, looked up): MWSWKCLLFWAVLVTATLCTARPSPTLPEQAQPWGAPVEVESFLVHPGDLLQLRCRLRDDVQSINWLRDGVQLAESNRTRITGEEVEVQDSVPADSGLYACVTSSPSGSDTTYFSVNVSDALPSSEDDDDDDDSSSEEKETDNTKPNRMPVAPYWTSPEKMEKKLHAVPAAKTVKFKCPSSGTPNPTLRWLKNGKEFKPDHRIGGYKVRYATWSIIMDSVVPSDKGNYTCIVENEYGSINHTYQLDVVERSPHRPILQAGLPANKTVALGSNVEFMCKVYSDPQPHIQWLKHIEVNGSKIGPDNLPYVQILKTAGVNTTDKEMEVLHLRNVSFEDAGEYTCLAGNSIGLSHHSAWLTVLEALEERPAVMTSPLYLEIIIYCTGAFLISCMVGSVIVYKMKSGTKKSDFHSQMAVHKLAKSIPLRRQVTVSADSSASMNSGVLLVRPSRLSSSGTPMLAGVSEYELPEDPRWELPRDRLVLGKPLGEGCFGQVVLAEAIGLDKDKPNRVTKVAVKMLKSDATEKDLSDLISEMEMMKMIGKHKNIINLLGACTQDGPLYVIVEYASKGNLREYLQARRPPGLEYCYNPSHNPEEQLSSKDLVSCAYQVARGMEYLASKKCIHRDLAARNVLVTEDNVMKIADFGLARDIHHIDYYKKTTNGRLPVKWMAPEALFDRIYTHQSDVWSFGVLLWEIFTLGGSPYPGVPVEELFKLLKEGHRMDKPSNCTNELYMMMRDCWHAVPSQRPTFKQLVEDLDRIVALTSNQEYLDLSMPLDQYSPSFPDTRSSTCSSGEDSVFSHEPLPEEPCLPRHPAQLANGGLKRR

FGFR3 = FGFR3 (UniProt P22607); experiment: as above
Chain of FGFR3 (P22607 whole entry, looked up): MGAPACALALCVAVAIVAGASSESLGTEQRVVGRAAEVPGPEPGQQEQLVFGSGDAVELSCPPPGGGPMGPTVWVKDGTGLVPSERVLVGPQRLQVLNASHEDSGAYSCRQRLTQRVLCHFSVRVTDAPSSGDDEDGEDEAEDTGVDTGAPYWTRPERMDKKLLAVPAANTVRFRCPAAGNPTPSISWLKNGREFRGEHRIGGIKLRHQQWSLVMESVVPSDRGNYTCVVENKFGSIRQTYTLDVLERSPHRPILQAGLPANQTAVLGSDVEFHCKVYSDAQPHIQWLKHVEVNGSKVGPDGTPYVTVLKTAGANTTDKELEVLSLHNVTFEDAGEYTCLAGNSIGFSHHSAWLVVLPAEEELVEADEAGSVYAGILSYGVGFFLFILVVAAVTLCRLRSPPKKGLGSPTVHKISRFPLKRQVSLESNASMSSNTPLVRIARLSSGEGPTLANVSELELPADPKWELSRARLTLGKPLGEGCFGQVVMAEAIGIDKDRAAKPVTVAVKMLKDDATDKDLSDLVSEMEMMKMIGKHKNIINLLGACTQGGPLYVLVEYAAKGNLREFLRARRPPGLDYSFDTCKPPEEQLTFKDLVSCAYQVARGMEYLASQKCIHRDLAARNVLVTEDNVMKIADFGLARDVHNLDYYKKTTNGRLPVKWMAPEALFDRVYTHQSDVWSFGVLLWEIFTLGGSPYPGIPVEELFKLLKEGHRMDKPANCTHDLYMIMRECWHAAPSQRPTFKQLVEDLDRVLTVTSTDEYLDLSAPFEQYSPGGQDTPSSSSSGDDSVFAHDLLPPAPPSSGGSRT

Fer (mouse) = experiment: as above
Fes = Fes (UniProt P07332); experiment: as above
Chain of Fes (P07332 whole entry, looked up): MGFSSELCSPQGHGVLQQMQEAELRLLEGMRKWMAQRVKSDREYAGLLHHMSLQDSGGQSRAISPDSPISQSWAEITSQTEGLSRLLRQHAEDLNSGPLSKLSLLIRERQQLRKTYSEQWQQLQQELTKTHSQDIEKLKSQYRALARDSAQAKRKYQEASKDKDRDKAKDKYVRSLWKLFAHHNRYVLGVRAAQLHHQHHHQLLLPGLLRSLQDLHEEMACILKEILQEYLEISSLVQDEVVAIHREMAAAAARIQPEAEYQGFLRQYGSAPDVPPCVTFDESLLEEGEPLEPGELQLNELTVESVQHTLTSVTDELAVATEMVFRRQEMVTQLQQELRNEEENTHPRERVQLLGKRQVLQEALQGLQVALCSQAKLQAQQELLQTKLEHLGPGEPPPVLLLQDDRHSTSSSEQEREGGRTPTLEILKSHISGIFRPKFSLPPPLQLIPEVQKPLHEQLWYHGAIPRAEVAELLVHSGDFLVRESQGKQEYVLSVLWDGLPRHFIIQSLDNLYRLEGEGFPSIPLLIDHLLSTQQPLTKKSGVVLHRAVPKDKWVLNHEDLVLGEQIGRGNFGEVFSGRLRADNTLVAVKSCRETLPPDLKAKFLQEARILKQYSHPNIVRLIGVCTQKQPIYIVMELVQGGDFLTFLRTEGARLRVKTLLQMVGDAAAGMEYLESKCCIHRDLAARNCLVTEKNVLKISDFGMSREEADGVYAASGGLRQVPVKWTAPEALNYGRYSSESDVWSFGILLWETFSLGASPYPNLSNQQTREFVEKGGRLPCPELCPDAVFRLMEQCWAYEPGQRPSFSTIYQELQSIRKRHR

Fyn = Fyn (UniProt P06241); experiment: as above
Chain of Fyn (P06241 whole entry, looked up): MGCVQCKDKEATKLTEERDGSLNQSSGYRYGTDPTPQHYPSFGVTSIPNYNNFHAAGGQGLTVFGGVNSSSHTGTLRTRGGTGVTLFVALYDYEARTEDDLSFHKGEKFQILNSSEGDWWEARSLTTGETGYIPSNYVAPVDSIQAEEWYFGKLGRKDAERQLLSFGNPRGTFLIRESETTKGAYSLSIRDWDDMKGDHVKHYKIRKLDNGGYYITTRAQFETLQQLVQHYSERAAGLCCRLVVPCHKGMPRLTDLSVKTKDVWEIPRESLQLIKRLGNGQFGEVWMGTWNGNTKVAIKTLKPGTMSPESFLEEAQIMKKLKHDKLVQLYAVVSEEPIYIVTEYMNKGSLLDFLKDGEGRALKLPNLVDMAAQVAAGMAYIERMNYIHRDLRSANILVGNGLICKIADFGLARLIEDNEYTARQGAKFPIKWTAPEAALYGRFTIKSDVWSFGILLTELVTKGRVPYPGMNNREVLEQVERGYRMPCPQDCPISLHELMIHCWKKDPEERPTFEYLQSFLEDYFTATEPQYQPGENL

Hck = Hck (UniProt P08631); experiment: as above
Chain of Hck (P08631 whole entry, looked up): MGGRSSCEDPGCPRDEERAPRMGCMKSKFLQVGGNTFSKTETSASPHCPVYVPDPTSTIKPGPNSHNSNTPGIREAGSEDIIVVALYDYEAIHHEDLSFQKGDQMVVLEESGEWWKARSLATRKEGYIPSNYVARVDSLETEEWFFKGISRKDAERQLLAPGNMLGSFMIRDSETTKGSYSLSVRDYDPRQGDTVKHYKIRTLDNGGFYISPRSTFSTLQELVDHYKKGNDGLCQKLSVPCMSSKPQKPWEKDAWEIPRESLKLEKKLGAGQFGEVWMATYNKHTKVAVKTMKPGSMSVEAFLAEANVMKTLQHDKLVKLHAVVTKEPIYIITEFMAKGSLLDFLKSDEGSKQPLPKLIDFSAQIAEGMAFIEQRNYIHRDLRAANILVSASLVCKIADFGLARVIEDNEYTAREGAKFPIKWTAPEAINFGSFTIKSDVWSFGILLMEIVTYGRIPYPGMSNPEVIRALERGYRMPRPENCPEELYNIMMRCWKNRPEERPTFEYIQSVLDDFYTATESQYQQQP

Jak2 = Jak2 (UniProt O60674); experiment: as above
MERTK = MERTK (UniProt Q12866); experiment: as above
c-Abl (mouse) = experiment: as above
c-Src = experiment: as above
Grb2 SH2 = Grb2 SH2 (UniProt P62993); experiment: SH2 binding enrichment of the phosphorylated peptide, bacterial display (enrichment ratio); higher = better substrate or ligand; peptides without Tyr show the background
SHP2-C SH2 = experiment: as above
c-Src SH2 = experiment: as above
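Wherever SH2 binding enrichment of the phosphorylated peptide, bacterial display is given: peptide library displayed on the E. coli surface as eCPX fusions, selected cells deep-sequenced, score is each peptide's frequency after selection divided by its frequency in the input.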
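Wherever phosphorylation enrichment, bacterial display is given: 11-residue human phosphosite peptides and single-mutation variants displayed on the E. coli surface, counted by deep sequencing, each peptide's frequency after selection divided by its frequency in the unselected input library; frequency after pTyr selection over input frequency; kinase dosed for 20-30% of maximal phosphorylation in three min.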

Chain of EPHB1 (P54762 whole entry, looked up): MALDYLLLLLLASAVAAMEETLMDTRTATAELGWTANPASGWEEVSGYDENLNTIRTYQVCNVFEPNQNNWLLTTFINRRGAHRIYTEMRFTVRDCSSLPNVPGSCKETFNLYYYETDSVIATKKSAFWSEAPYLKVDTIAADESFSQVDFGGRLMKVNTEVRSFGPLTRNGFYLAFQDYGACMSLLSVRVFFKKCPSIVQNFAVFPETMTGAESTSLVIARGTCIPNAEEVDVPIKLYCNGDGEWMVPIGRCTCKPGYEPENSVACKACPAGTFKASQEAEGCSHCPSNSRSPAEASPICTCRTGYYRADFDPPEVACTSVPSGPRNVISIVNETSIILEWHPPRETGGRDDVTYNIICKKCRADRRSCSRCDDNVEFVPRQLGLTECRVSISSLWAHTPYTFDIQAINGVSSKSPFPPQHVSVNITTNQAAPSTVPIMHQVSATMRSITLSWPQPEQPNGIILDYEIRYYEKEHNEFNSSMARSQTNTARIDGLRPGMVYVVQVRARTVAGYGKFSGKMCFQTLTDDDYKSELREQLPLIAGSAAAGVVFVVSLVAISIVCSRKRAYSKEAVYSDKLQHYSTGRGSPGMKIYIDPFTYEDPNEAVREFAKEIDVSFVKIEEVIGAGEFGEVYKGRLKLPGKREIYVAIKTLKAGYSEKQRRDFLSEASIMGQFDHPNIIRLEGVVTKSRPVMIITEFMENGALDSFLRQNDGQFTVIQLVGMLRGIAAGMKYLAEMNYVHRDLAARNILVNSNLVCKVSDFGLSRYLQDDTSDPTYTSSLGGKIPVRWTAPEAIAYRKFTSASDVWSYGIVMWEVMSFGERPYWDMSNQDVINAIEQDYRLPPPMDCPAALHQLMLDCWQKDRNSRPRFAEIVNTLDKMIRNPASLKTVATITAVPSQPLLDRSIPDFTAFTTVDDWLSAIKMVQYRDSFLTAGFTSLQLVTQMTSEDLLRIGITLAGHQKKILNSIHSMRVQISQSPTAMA

Row | SH2 binding enrichment (Grb2 SH2) | SH2 binding enrichment (SHP2-C SH2) | SH2 binding enrichment (c-Src SH2) | Sequence | phosphorylation enrichment (AncSZ) | phosphorylation enrichment (EPHB1) | phosphorylation enrichment (EPHB2) | phosphorylation enrichment (FGFR1) | phosphorylation enrichment (FGFR3) | phosphorylation enrichment (Fer (mouse)) | phosphorylation enrichment (Fes) | phosphorylation enrichment (Fyn) | phosphorylation enrichment (Hck) | phosphorylation enrichment (Jak2) | phosphorylation enrichment (MERTK) | phosphorylation enrichment (c-Abl (mouse)) | phosphorylation enrichment (c-Src)
1 | 1.64 | 1.47 | 1.24 | GMTLSYLFREL [NDUFS8_Y74_P79L] | 0.888 | 0.514 | 0.55 | 0.53 | 0.604 | 0.431 | 0.905 | 0.451 | 0.487 | 0.758 | 0.447 | 0.603 | 0.383
2 | 1.34 | 1.32 | 1.18 | GMTRNYIIFIE [BCO2_Y294] | 0.96 | 0.649 | 0.67 | 0.599 | 0.745 | 0.447 | 0.921 | 0.567 | 0.563 | 0.885 | 0.487 | 0.49 | 0.498
3 | 0.817 | 0.754 | 0.541 | GPIEVYLCPEE [E2F3_Y349] | 1.18 | 0.696 | 0.533 | 0.462 | 0.743 | 0.458 | 1.08 | 0.525 | 0.549 | 1.29 | 0.437 | 0.724 | 0.683
4 | 0.776 | 0.661 | 0.621 | GPRSLYNGLVA [UCP2_Y79] | 0.488 | 0.385 | 0.36 | 0.396 | 0.486 | 0.386 | 0.543 | 0.427 | 1.45 | 0.502 | 0.381 | 0.555 | 0.509
5 | 1.24 | 1.06 | 0.76 | GPSTPYTKSKC [SMARCC2_Y324_R329C] | 0.584 | 0.35 | 0.408 | 0.362 | 0.479 | 0.393 | 0.534 | 0.403 | 0.395 | 0.573 | 0.396 | 0.55 | 0.36
6 | 0.894 | 0.86 | 0.567 | GRDQPYSGAGD [TYRO3_Y828] | 0.442 | 0.293 | 0.457 | 0.559 | 0.357 | 0.31 | 0.765 | 0.623 | 0.445 | 0.508 | 0.383 | 0.359 | 0.356
7 | 0.857 | 0.631 | 0.92 | GRFSGYKSKHG [EPHA3_Y570_C568S] | 0.39 | 0.34 | 0.256 | 0.312 | 0.392 | 0.278 | 0.438 | 0.407 | 0.361 | 0.438 | 0.397 | 0.65 | 0.364
8 | 1.04 | 0.754 | 0.634 | GRTNIYNNKKD [SLC26A3_Y520_K521N] | 0.418 | 0.311 | 0.339 | 0.324 | 0.349 | 0.326 | 0.632 | 0.347 | 0.365 | 0.691 | 0.301 | 0.433 | 0.435
9 | 1.01 | 6.94 | 0.907 | GRVYVYHLSEQ [ITGAE_Y551_R552H] | 1.03 | 0.645 | 0.548 | 0.559 | 0.712 | 0.531 | 1.13 | 0.835 | 0.602 | 0.994 | 0.386 | 0.646 | 0.799
10 | 0.842 | 2.08 | 8.16 | GTCGGYCSVLG [RAB18_Y202_A198T] | 0.532 | 0.344 | 0.353 | 0.37 | 0.488 | 0.389 | 0.488 | 0.397 | 0.388 | 0.451 | 0.527 | 0.401 | 0.42
11 | 0.996 | 0.637 | 0.586 | GVIRHSVVCST [BTK_Y334_Y334S] | 0.783 | 0.508 | 0.456 | 0.453 | 0.51 | 0.477 | 0.82 | 0.42 | 0.436 | 0.67 | 0.446 | 0.607 | 0.45
12 | 0.798 | 0.646 | 0.467 | GVKLTYGDAQS [SLC28A1_Y404_N409S] | 0.599 | 0.472 | 0.34 | 0.429 | 0.453 | 0.373 | 0.646 | 0.426 | 0.456 | 0.46 | 0.335 | 0.52 | 0.349
13 | 0.943 | 17.4 | 0.67 | GVRYIYTIDGS [DCX_Y105] | 1.09 | 0.6 | 0.552 | 0.487 | 0.743 | 0.415 | 1.31 | 1.76 | 0.783 | 0.937 | 0.405 | 0.687 | 1.86
14 | 0.742 | 0.791 | 0.448 | GYGGGYGGVLT [KRT19_Y65_A60G] | 0.556 | 0.359 | 0.47 | 0.468 | 0.511 | 0.419 | 0.641 | 0.42 | 0.665 | 0.575 | 0.391 | 0.468 | 0.453
15 | 1.39 | 2.01 | 1.28 | GYKVRYATWSI [FGFR1_Y210] | 1.06 | 0.573 | 0.425 | 0.519 | 0.669 | 0.456 | 1.18 | 0.54 | 0.593 | 1.08 | 0.657 | 0.969 | 0.582
16 | 0.955 | 0.977 | 2.77 | GYRVYYTPDSR [PTPRF_Y451] | 0.794 | 2.35 | 2.15 | 0.73 | 0.675 | 0.477 | 0.768 | 1.24 | 2.69 | 2.29 | 5.3 | 1.89 | 1.54
17 | 0.957 | 1.36 | 0.826 | HCHEGYVLHGA [SVEP1_Y2921_I2922V] | 1.28 | 0.915 | 0.807 | 1.11 | 1.13 | 0.911 | 1.3 | 0.789 | 0.786 | 0.943 | 0.474 | 0.78 | 0.527
